The record followed here is publication PMC10128019.

This test addresses HA76Cda1 (Cda1 with the HA epitope inserted at position 76) (Ustilago maydis). In words: FRET or BRET. Background: In BRET a luciferase serves as donor, and the signal depends on an acceptor being close.

As to “DyLight 550-labeled AFP1-His (AFP1^550) (natural protein)”, the FRET efficiency amounted to 23%.
